In patent US20180031579A1 one finds apoptosis in primary AML blasts, subjects 5 and 6 data, which are given here for one substance.

The target in the test is Growth differentiation factor 11 (GDF11) (human) (UniProt O95390). Briefly: cell-based or functional assay.
UniProt O95390, sequence (O95390 299-407 limits assumed): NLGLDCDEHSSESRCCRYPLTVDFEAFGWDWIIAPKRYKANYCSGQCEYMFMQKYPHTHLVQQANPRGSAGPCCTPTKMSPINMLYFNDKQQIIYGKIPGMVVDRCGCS

The substance “anti-human GDF11 antibody ab71347 (Abcam)” yielded an apoptosis in primary AML blasts, subjects 5 and 6 of 50 % apoptosis.
